Experiment: soluble on expression in E. coli; label from the status in PepcDB or PDB records

Sequence	soluble on expression in E. coli
ELLKSGKAKDRFEGEENAPVTIVEYASLTCVHCAHFYNDVLPQIRKKYIKTGKVKLIFRDFAFDSRATAGFMLARCAPEDRYFPLIEVLFQKQSEWVWARDAVTPLKKIGLMAGFTDESFNACLKNQSILDEVNASFERGKELGVNATPTFFINGNKYEGAMSVEAFFSVIDSFLKN	not soluble
MAKGTKYVSKVPDEHGFIEWSTEENLIWQELFTRQIACIKDKACDEYHEGLAKLNLPTDRIPQLDEVSKVLKVSTGWECYPVPALIGFGEFFRLLSEKKFPVATFIRSREEMDYLQEPDIFHEIFGHCPLLTNSSFANYTEAYGKMGLNATKEQRVFLARLYWFTIEFGLLDTPKGLRIYGGGVLSSPGETDYAMNNTDVDRKPFDILDVLRTPYRIDIMQPIYYMLTKVSDLDEIRKFEVDDIMELVAQAEALGLHEAKFPVKKASLEHHHHHH	soluble
MILHGFHLSTSSHCLPFIFRHLFIFHSITALCDHMLSKFVVVEVSNSNNTMTLVEYLVTHGFDKFAVVTDLVDHPSFKYKDGSSSPESPSTTASTAAQHTPPRTAVSTPTSINTPVPPHQNKQRHSIDKIAANLSTKKVSPSSIEKQLQRTSHNPLHQLSTPHALSQLQKLLEEQHKINQMNIQKKEQERQQAEIQRILLQQANAAQINHSFGLERLTPEYDDNHHSETISKASSEDLKTEPDSTDFGLGTSDDQVRASMLHLLHPVFAPAFGMLDAENIFGAASKPTTPASKRRNTDSNGAPSKKHRWLPVNELEESRSSRGKNCGRVHCKATYKCALCGKPTTLNSTGSRWNLLRHVIMIHSDCKPYKCWDCDFTGIKSNVISHARQCRHNAEDAHDITTDEMRAEWNLRLHECFPDYVRAKERGWQPEEVTVKKEEVEESPTLVKQELTLVKQEPTFAEQLEPMAQPLV	not soluble
MSADEPSPEDEKYLESLRDLLKISQEFDASNAKQNDEPEKTAVEVESAETRTDESEKSIDIPREQQLLPSERVEPLKSMVEPEYVKKVIRQMDTMTAEQLKQALMKIKVSTGGNKKTLRKRVAQYYRKENALLNRKMEPNADKTARFFDYLIAIDFECTCVEIIYDYPHEIIELPAVLIDVREMKIISEFRTYVRPVRNPKLSEFCMQFTKIAQETVDAAPYFREALQRLYTWMRKFNLGQKNSRFAFVTDGPHDMWKFMQFQCLLSNIRMPHMFRSFINIKKTFKEKFNGLIKGNGKSGIENMLERLDLSFVGNKHSGLDDATNIAAIAIQMMKLKIELRINQKCSYKENQRSAARKDEERELEDAANVDLTSVDISRRDFQLWMRRLPLKLSSVTRREFINEEYLDCDSCDDLTDDKVKHLHSCDIYEIFDEKTSASFTDSKCLIC	soluble
MALEYVVTKRVFGFDKDKNEKYVAKSVRSGRVSFSKMCGKVSRLCGVHRKVVDLVVSGLVDMMAEDIDDGKSVQMGEFGIFSPTIRAKSADDEKEVSSKSIVQRKILFYPGKIFKTTLDDMSITRRAELDTDYTDGSSNNGSGSEKPNPGGDGGKDDEEAPDPTV	not soluble
MYCPFCHNDQSRVIDSRVIDSGSAIRRRRECTQCKNRFTTVEKAQLLVVKRNGLTEPFSREKVIVGVRRACQGRDVSDDALKRLAQQVEERVRLHGSSQIHANEIGLAILEPLRELDEVAYLRFASVYKSFESADDFESEIRLMRRRDRSN	not soluble
MDRKVAREFRHKVDFLIENDAEKDYLYDVLRMYHQTMDVAVLVGDLKLVINEPSRLPLFDAIRPLIPLKHQVEYDQLTPRRSRKLKEVRLDRLHPEGLGLSVRGGLEFGCGLFISHLIKGGQADSVGLQVGDEIVRINGYSISSCTHEEVINLIRTEKTVSIKVRHIGLIPVKSSPDEPLTWQYVDQFVSES	soluble
MEPGTYELRGTVHDETFNTTVWTPYNFEGFYYSIDENVSTESLTLTEEISGRSIDDEALVYSTSPALVKFEQESWGSYQVIGFMAEKYFAGYPANTFGNSRSVSVLSDDILAKVLIDDDHKRSMFTGSSIALENGYSLKAAEVDVNGNRVLLELYRDGELVDSGITSSNGDYIYEADIGGAEDVPMIAAHISTVFRSRETDAVFIEGIFQVSDDYLELSQGDSFGKMEISTISSSGITMKNEDSISLSRGNTISLMGNVSFKVADSNVLRFYPFVEVKSAPQDQLRIETPDVFVVGEAAEISVTARDAAVSDVEIRLGNQSIGTTGDDGILAYTPTLEGDFTLYANKAGYLSGSKDVDIVLEHHHHHH	soluble
GHHHHHHAIAENLYFQSNSHDGSNFSNKFSAHKDVVEDLLRKDTVGLVTFQDFRARREYLERCAVAEAACQNASRRAEELETKKKRVKRANLSRLSFGDSLEDQEENSVEFAKITRFASSKKANGVGFNTSGQDIVKEPDVFSPKEEGFFGKQNRKIGMDPGVDTSFLPDRDREQEERLERERLKQQWLSEQERVKNEEIDIIYSIWDGRGQRKLLSCKKGTTIAKFLSIVQQKVSTLKHCKVEDLMFIKEDMIIPHHLSFYDLISMKARGKNGSLFCFDVHEDIRIRNDASVEKDDSHAAKVVERRWYERNKHIYPASMWEVFDVSKNYGRVQKDFFGN	not soluble
MGSDKIHHHHHHMSAQIIQLHTEAPAASVAQSPRKPTKAEKAIIADYVQDLIRRGFCKITDKSAKETRLFNRFDGEPQTLSYLRENFTEWLDDNGKECEFFCERYFIRRLKHIVGRVFKPNAPEFTQSPITGYRYANTYRRYEPTVDSADLPSCFHAYFERMFPAKHQRHIVLQWLAHIFRRPDQRPSWHLMLLSEPGTGKGFLVQNILQPLLHHTSVVASYSRITGKHSAVLVENLVILLDDCKSRSEATQTEMKSFLSEERALVERKYASAGMEDTYARMILASNEEIPLYVDPNERRWYIPDDVVHLVDLRETQANIIQPLADWLDEPGSLCKVYNWFMQYPLDGFNHKSVPESEGLTRLIDKSKGPYRQYIEDYVKDNKVFTYADLVESMTDAKLSKPSDRELGHVLREIGYEATQRRIDGVRLRLCHPVGMSLQDIRAAYSASPTDPNTPF	not soluble
MSLAAGRSSTSGLVAPDIENPFFPEIIRAFQESTNLSGLEAVGMNTAYDAQRTRGVIERPVSLQVPGAAFFTTQVDSGIKNALAARNIAGVYMDYGDAAPGISSIAVNYPEGMLQAITHLRDLGHRRIGLVGGPAHGAGAQRRKAAFLEGLKTNGIEGRATESDFSVQGGYFSCSKLLASYDCTAVIAANDLMAIGALHLAYDRQIAVPAQLSIIGFDDITFAKFTQPALTTVAVPRAEIGRVAFECRLALMKDPGAAGESHEIPTHLVVRQTTASVGEGHHHHHH	not soluble
MVVEENCSMHHLERELDLELEIDMAMECAPIGRTIKSALLRAQSEARVIVGLSAAINVLSKSPEGSLFCLMAQPKDGDSATHMHEVLLEAFCYENDIYVIKVDDATKLSRILGQDSVESCCLVQKVWADAPEEQLTKAENQLVDYCEAHWDAPQQPIVQLPAV	not soluble
MSLTQVHFTLKSEEIQSIIEYSVKDDVSKNILTTVFNQLMENQRTEYIQAKEYERTENRQSQRNGYYERSFTTRVGTLELKVPRTRDGHFSPTVFERYQRNEKALMASMLEMYVSGVSTRKVSKIVEELCGKSVSKSFVSSLTEQLEPMVNEWQNRLLSEKNYPYLMTDVLYIKVREENRVLSKSCHIAIGITKDGDREIIGFMIQSGESEETWTTFFEYLKERGLQGTELVISDAHKGLVSAIRKSFTNVSWQRCQVHFLRNIFTTIPKKNSKSFREAVKGIFKFTDINLAREAKNRLIHDYIDQPKYSKACASLDDGFEDAFQYTVQGNSHNRLKSTNLIERLNQEVRRREKIIRIFPNQTSANRLIGAVLMDLHDEWIYSSRKYINFDKEGHHHHHH	soluble
MGQGNDTSEVMLLDTGWEFSQSGTEKWMPATVPGTVHQDLISHELLPNPFYGMNEKKIQWVENEDWEYRTSFIVSEEQLNRDGIQLIFEGLDTYADVYLNGSLLLKADNMFVGYTLPVKSVLRKGENHLYIYFHSPIRQTLPQYASNGFNYPADNDHHEKHLSVFSRKAPYSYGWDWGIRMVTSGVWRPVTLRFYDIATISDYYVRQLSLTDENARLSNELIVNQIVPQKIPAEVRVNVSLNGTTVTEVKQQVTLQPGINHITLPAEVTNPVRWMPNGWGTPTLYDFSAQIACGDRIVAEQSHRIGLRTIRVVNEKDKDGESFYFEVNGIPMFAKGANYIPQDALLPNVTTERYQTLFRDMKEANMNMVRIWGGGTYENNLFYDLADENGILVWQDFMFACTPYPSDPTFLKRVEAEAVYNIRRLRNHASLAMWCGNNEILEALKYWGFEKKFTPEVYQGLMHGYDKLFRELLPSTVKEFDSDRFYVHSSPYLANWGRPESWGTGDSHNWGVWYGKKPFESLDTDLPRFMSEFGFQSFPEMKTIAAFAAPEDYQIESEVMNAHQKSSIGNSLIRTYMERDYIIPESFEDFVYVGLVLQGQGMRHGLEAHRRNRPYCMGTLYWQLNDSWPVVSWSSIDYYGNWKALHYQAKRAFAPVLINPIQQNDSLSVYLISDRLDTMEQMTLEMKVVDFDGKTLGKKIQVHSLEVPANTSKCVYRAKLDGWLTPEDCRRSFLKLILKDKSGHQVAESVHFFRKTKDLQLPPTSVSYQMKQTDGKCELTLFSSMLAKDIFIETPLQGARYSDNFFDLLPGERKKVIITSPRIKKGEELPVNIKHIRETYKEHHHHHH	soluble
MNEQGVIFNSNGKQLVGIEHLPEPIHQGQTNKGVIIVVGGPQTRVGSHRLFVHLARALAKQRIVVFCFDYSGAGDSEGTVSTFTDIQDDIEAAFTPLSSAIVILLSWLDGAYAMLHRPFCFTSMSALNKRR	not soluble
TAWILMVPIALLYVKNWEEECCKQKKEEFREQFRESIQTLSAILKVGYSVENAIRETWKEICPIYKKKTRIIKEYETMVHQLDLNMTAEEVMKQFADRVKEEDVENFVTVFGAAKRLGGDSIAIIRHAADAIGEKMEVEREIQVMLTSKKLEFKIMCVIPFVIILYMRSAFPEFM	not soluble
MIIMLSEYLEEFKEYLERFKNIDINFSDVLKMSKKFIIWRLKQIFGDSSTIFTNISSEITIFDKIFQMIDYDIDGEVEKRLPKDESRFMIGVRREKEIEIKKEIITNLLDFLLIILLSHTPYFNAFVRKYAEIKKIKVIKKLPNKISVWEFIKIASRSRINDLHLERLDLENGFVDITKIKEIFAKEIIRVELMKLGENIKKRKLPDDSVVKELLNEISDYLKDKVKYEQISGIKALNYKGNIPLEWHPPCIRGILNDILSGGSPSHYARRSFVVYWFCAKFNPNLRPLDKNGNLVNVSATDIASEEEIERFIDELIEMLFKNVEDFDEKKTRYYIMHNIGYKVGHGRLTHCEYCKNWQDDGGKGLSYYCKPDELCKKKFIIHPLDYLCYNINKHLKKERFKKIKKEDKNGDNKLEHHHHHH	soluble
MSLADLTSLSIEHLRSPRLYTHRLILRPWLVQDRARFAELNADPLVMEFFPSCLDRAQSDALLRRIDAHFAEHGFGWWALQVKGGDPFIGYVGLEVVDFDAPFVPAVAIGWRLAAEHWAEGFAHEAAEAALSYAFDTLGLDQVVAFTVPANENSLGLMERLGMHRDPTDDFEHPDLPPGHRLRHHVLYRLTREDWLRREGGSHHHHHH	soluble
MKNTEIRKNIFPVGFYDDIHPDFSVNFQMNRCYTMTNDDVMLKEMREISPSIHNYEEFIEKFLELYNKALNEGHKLRAAYYLRTAEFYMTADHPQKQNYRKQFISLMQEYFNISDEQPYKVPYENGFLPAYRFTSEAPKGTIVMFGGFDSYVEEMFKMALFLKEAGYDVVFFDGPGQGSALEDYKIPMTHEWEKPVKSILDYFELDDVTLLGISLGGYLTVRAAAFEKRVHRVIADDILSNFYEVVLNTLPSQLKEKVNSLMSDGNEQEVNILFKDLMKKSLMVEWAINQGMHITGSKTPYEFLNKILLYNTSKISEKLEQDVLLMAAQEDHYIPLNQFFDQSKSLINVRSLTTRMFTRKETAQNHCQSGNLGLAFEVIANWIEQIQK	soluble

Reference: the DeepSol protein solubility set
